B1: HSP90AB1 (parent)
chain: TLRQKAEADKNDKAVKDLVVLLFE

Variants of: B1
Experiment: protein stability index of a GFP-peptide fusion (GPS, HEK-293T) (PSI 1-6); higher = more stable
Settings: c terminus: a fixed tail appended
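Further: lentivirally expressed fusions sorted by FACS into six bins by GFP to DsRed ratio, PSI derived from sequencing read proportions per bin multiplied by bin number.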

Protein stability index of substitutions, site by site:
D12: N 2.62 | I 2 | W 2.07
A8: E 3.16 | Q 3.24 | H 2.85 | P 2.21 | W 3.03 | V 3.27
E24: W 1.97 | L 2.54 | V 2.01 | Q 2.64 | I 2.54 | P 1.71 | Y 2.21 | S 2.19 | H 2.79 | K 2.06 | A 1.89
K16: P 2.65 | D 3.36 | V 3.65 | Y 2.24 | H 3.29 | I 2.24 | Q 3.75 | F 3.28 | A 2.87 | W 3.02 | M 2.86
V19: S 4.08 | D 4.61 | Y 3.1 | L 2.68 | H 4.22 | R 4.18 | G 4.16 | Q 4.23 | T 4.13 | F 2.96 | C 3.16 | W 2.7 | M 2.44
L2: Q 3.62 | E 3.01 | C 3.12 | G 3.13 | W 2.43 | R 2.56 | I 3.16 | D 3.13 | M 2.95 | S 3.05 | P 3.23
V20: L 3.13 | H 3.43 | W 2.58 | Y 2.7 | N 4.46 | G 3.64 | D 5.3 | P 4.05
F23: P 5.02 | E 5.22 | A 3.7 | C 3.71 | M 3.37 | Q 4.55 | R 3.79 | G 4.87 | K 4.69 | T 4.76
L18: I 2.95 | R 3.19 | F 2.24 | N 4.19 | V 2.24 | Q 4.03 | K 3.44 | E 4.04 | S 3.9
K5: H 3.01 | V 3.24 | T 3.15 | C 2.85 | Y 3.26 | I 3.03 | G 3.87 | A 3.12 | L 3.1
A14: H 2.79 | D 2.58 | F 2.02 | G 3.17 | I 3 | L 2.63 | K 3.1 | M 2.73 | S 2.26 | P 2.99 | W 2.68 | Q 2.92
L21: I 2.35 | K 2.91 | G 3.63 | Q 3.52 | W 1.73 | V 3.06 | Y 2.41 | D 4.26 | T 3.5 | F 2.35 | R 3.31 | P 4.61
D9: C 2.73 | Y 2.87 | E 2.74 | P 2.48 | A 2.98 | T 2.35
V15: F 2.91 | L 2.81 | N 3.12 | M 3.47 | E 3.37 | G 3.48 | K 3.27 | I 2.48 | D 3.2 | A 3.1 | P 2.54
N11: T 3.37 | V 2.89 | D 2.84 | A 3 | P 2.58 | I 2.98 | C 2.88 | R 3.15 | L 2.83
K13: H 2.46 | S 2.99 | T 2.96 | A 3.19 | V 2.91 | D 2.63 | M 2.75 | P 3.22 | C 2.84
R3: W 2.6 | Y 2.35 | N 3.1 | D 3.57 | I 3.18 | S 3.58 | Q 3.11
Q4: Y 2.37 | G 3.06 | M 2.48 | R 2.26 | H 2.37 | D 3.32 | N 2.71 | K 3.26 | C 2.51 | S 3.21
